Biological target: actin filament barbed end (Oryctolagus cuniculus, UniProt P68135)
Assay: pyrene-actin barbed-end elongation kinetic assay

B1: vinculin V1ab4 (protein)
chain: MPVFHTRTIESILEPVAQQISHLVIMHKEGEVHGKAIPDLTAPVAAVQAAVSNLVRVGKETVQTTEDQILKRDMPPAFIKVENACTKLVQAAQMLQSDPYSVPARDYLIHGSEGILSGTSDLLLTFDEAEVRKIIRVCKGILEYLTVAEVVETMEDLVTYTKNLGPGMTKMAKMIDERQQELTHQEHRVMLVNSMNTVKELLPVLISAMKIFVTTKNSKNQGIEEALKNRNFTVEKMSAEINEIIRVLQLTSWDEDAWASKDTEAMKRALASIDSKLNQAKGWLRDPSASPGDAGEQAIRQILDEAGKVGELCAGKERREILGTCKMLGQMTDQVADLRARGQGSSPVAMQKAQQVSQGLDVLTAKVENAARKLEAMTNSKQSIAKKIDAAQNWLADPNGGPEGEEQIRGALAEARKIAELCDDPKERDDILRSLGEISALTSKLADLRRQGKGDSPEARALAKQVATALQNLQTKTNRAVANSRPAKAAVHLEGKIEQAQRWIDNPTVDDRGVGQAAIRGLVAEGHRLANVMMGPYRQDLLAKCDRVDQLTAQLADLAARGEGESPQARALASQLQDSLKDLKARMQEAMTQEVSDVFSDTTTPIKLLAVAATAPPDAPNREEVFDERAANFENHSGKLGATAEKAAAVGTANKSTVEGIQASVKTARELTPQVVSAARILLRNPGNQAAYEHFETMKNQWIDNVEKMTGLVDEAIDTKSLLDASEEAIKKDLDKCKVAMANIQPQMLVAGATSIARRANRILLVAKREVEISKDPKFREAVKAASDELSKTISPMVMDAKAVAGNISDPGLQKSFLDSGYRILGAVAKVREAFQPQEPDFPPPPPDLEQLRLTDELAPPKPPLPEGEVPPPRPPPPEEKDEEFPEQKAGEVINQPMMMAARQLHDEARKWSSKPGIPAAEVGIGVVAEADAADAAGFPVPPDMEDDYEPELLLMPSNQPVNQPILAAAQSLHREATKWSSKGNDIIAAAKRMALLMAEMSRLVRGGSGTKRALIQCAKDIAKASDEVTRLAKEVAKQCTDKRIRTNLLQVCERIPTISTQLKILSTVKATMLGRTNISDEESEQATEMLVHNAQNLMQSVKETVREAEAASIKIRTDAGFTLRWVRKTPWYQ
  Kd: ~1260 nM

From PMC12757075 (2026)
